As a reminder, the IC50 is the concentration at which inhibition is half-maximal. The Kd is the equilibrium constant for the complex coming apart.

1 molecule from paper PMC5735849 can be followed below.

For experiment [1], the target named is T1, NP (ΔNPNTD) NTD (Zaire ebolavirus), P18272.
T1 chain: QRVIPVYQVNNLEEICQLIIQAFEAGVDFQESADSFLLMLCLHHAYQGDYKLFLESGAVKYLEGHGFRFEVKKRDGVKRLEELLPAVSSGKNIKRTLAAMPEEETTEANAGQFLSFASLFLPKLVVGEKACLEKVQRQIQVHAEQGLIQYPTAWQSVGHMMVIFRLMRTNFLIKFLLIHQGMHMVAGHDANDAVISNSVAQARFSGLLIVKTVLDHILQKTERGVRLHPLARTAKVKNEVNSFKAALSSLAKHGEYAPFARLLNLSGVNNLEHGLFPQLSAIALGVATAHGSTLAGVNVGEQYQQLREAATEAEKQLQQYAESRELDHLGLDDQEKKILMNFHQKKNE
The experiment in a line: competition. The following applies: modification not given.

Experiment [2] deals with T1, NP (ΔNPNTD) NTD (Zaire ebolavirus), …. The note with it: modification not given.

The molecule MPGPELSGWISEQLMTGRIPVSDIFCDIE [VP35 NPBP 20-48, Q05127] registered an IC50 in experiment [1] of 0.262 µM. Further, the Kd in experiment [2] was determined as 0.032 µM.
